This is an account of results in patent US20220306759A1 (CYTOMX THERAPEUTICS, published 2022).

Positions count from the first letter of the chain named.

The chains are these.
B1: Ab21.10 LcB:HcA (antibody, V domains shown)
VH: QVQLVQSGAEVKKPGASVKVSCKASGYTFTSYWMHWVRQAPGQGLEWMGAIYPGNSETGYAQKFQGRVTMTRDTSTSTVYMELSSLRSEDTAVYYCARENWDPGFAFWGQGTLVTVSS
VL: DIQMTQSPSSLSASVGDRVTITCSASSSVYYMYWFQQKPGKAPKLWIYSTSNLASGVPSRFSGSGSGTDYTLTISSMQPEDFATYYCQQRRNYPYTFGQGTKLEIK
notes: humanized; detected with anti-human IgG; also called huCD71 Ab21.10
B2: anti-CD71 M21 monoclonal antibody (antibody, V domains shown)
VH: EVQLQESGTVLARPGASVKMSCKASGYTFTSYWMHWVKQRPGQGLEWIGAIYPGNSETGYNQNFKGKAKLTAVTSASTAYMDLSSLTNEDSAVYYCTRENWDPGFAFWGQGTLITVSA
VL: DIVMTQTPAIMSASPGEKVTITCSASSSVYYMYWFQQKPGTSPKLWIYSTSNLASGVPVRFSGSGSGTSYSLTISRMEAEDAATYYCQQRRNYPYTFGGGTKLEIKR
notes: mouse monoclonal antibody from hybridoma; also called muM21; Mab21
B3: CD71 TF02.13-3001-vc-MMAE (antibody, human IgG1, kappa)
heavy: not shown
light: QGQSGQGNLCTEHSAALDCRSYGGGSSGGSAVGLLAPPGGLSGRSDNHGGSDIQMTQSPSSLSASVGDRVTITCSASSSVYYMYWFQQKPGKAPKLWIYSTSNLASGVPSRFSGSGSGTDYTLTISSMQPEDFATYYCQQRRNYPYTFGQGTKLEIKRTVAAPSVFIFPPSDEQLKSGTASVVCLLNNFYPREAKVQWKVDNALQSGNSQESVTEQDSKDSTYSLSSTLTLSKADYEKHKVYACEVTHQGLSSPVTKSFNRGEC
modifications: vc-MMAE conjugated to the antibody; chain and residues not stated
B4: CD71 Ab 21.12-vc-MMAE (antibody, human IgG1, kappa)
heavy: not shown
light: DIQMTQSPSSLSASVGDRVTITCSASSSVYYMYWFQQKPGKAPKLWIYSTSNLASGVPSRFSGSGSGTDYTLTISSMQPEDFATYYCQQRRNYPYTFGQGTKLEIKRTVAAPSVFIFPPSDEQLKSGTASVVCLLNNFYPREAKVQWKVDNALQSGNSQESVTEQDSKDSTYSLSSTLTLSKADYEKHKVYACEVTHQGLSSPVTKSFNRGEC
modifications: vc-MMAE conjugated to the antibody; chain and residues not stated
notes: antibody drug conjugate of Ab21.12
B5: CD71 TF02.13-3001-spdb-DM4 (antibody, human IgG1, kappa)
heavy: not shown
light: B3 light
modifications: spdb-DM4 conjugated to the antibody; chain and residues not stated
B6: CD71 TF02.13-2001-spdb-DM4 (antibody, human IgG1, kappa)
heavy: not shown
light: QGQSGQGNLCTEHSAALDCRSYGGGSSGGSISSGLLSGRSDNHGGGSDIQMTQSPSSLSASVGDRVTITCSASSSVYYMYWFQQKPGKAPKLWIYSTSNLASGVPSRFSGSGSGTDYTLTISSMQPEDFATYYCQQRRNYPYTFGQGTKLEIKRTVAAPSVFIFPPSDEQLKSGTASVVCLLNNFYPREAKVQWKVDNALQSGNSQESVTEQDSKDSTYSLSSTLTLSKADYEKHKVYACEVTHQGLSSPVTKSFNRGEC
modifications: spdb-DM4 conjugated to the antibody; chain and residues not stated
B7: CD71 TF02.13-3001-PEG2-vc-MMAD (antibody, human IgG1, kappa)
heavy: not shown
light: B3 light
modifications: PEG2-vc-MMAD conjugated to the antibody; chain and residues not stated
B8: CD71 Ab21.12-PEG2-vc-MMAD (antibody, human IgG1, kappa)
heavy: not shown
light: B4 light
modifications: PEG2-vc-MMAD conjugated to the antibody; chain and residues not stated
notes: as for B4
B9: CD71 Ab 21.12-spdb-DM4 (antibody, human IgG1, kappa)
heavy: not shown
light: B4 light
modifications: spdb-DM4 conjugated to the antibody; chain and residues not stated
notes: as for B4
B10: anti-human CD71 TF01-2001 activatable antibody (antibody, human IgG1, kappa)
heavy: not shown
light: QGQSGQGQFCPWSYYLIGDCDIGGGSSGGSISSGLLSGRSDNHGGGSDIQMTQSPSSLSASVGDRVTITCSASSSVYYMYWFQQKPGKAPKLWIYSTSNLASGVPSRFSGSGSGTDYTLTISSMQPEDFATYYCQQRRNYPYTFGQGTKLEIKRTVAAPSVFIFPPSDEQLKSGTASVVCLLNNFYPREAKVQWKVDNALQSGNSQESVTEQDSKDSTYSLSSTLTLSKADYEKHKVYACEVTHQGLSSPVTKSFNRGEC
notes: also called huCD71 TF01-2001
B11: anti-human CD71 TF02-2001 activatable antibody (antibody, human IgG1, kappa)
heavy: not shown
light: B6 light with A15F
B12: anti-human CD71 TF02.13-3013 activatable antibody (antibody, human IgG1)
heavy: not shown
VL: QGQSGQGNLCTEHSAALDCRSYGGGSSGGSAVGLLAPPGGLSGRSANIGGSDIQMTQSPSSLSASVGDRVTITCSASSSVYYMYWFQQKPGKAPKLWIYSTSNLASGVPSRFSGSGSGTDYTLTISSMQPEDFATYYCQQRRNYPYTFGQGTKLEIK
notes: without spacer 851
B13: anti-human CD71 TF02.13-3007 activatable antibody (antibody, human IgG1, kappa)
heavy: not shown
light: B3 light with N47I
B14: anti-human CD71 TF02.13-3011 activatable antibody (antibody, human IgG1, kappa)
heavy: not shown
light: B3 light with H48P
B15: anti-human CD71 TF02.13-3008 activatable antibody (antibody, human IgG1, kappa)
heavy: not shown
light: B3 light with N47Q
B16: anti-human CD71 TF02.13-2012 activatable antibody (antibody, human IgG1, kappa)
heavy: not shown
light: B6 light with D41A, H43P
B17: anti-human CD71 TF02.13-2011 activatable antibody (antibody, human IgG1, kappa)
heavy: not shown
light: B6 light with H43P
B18: anti-human CD71 TF02.13-2007 activatable antibody (antibody, human IgG1, kappa)
heavy: not shown
light: B6 light with N42I
B19: anti-human CD71 TF02.13-2008 activatable antibody (antibody, human IgG1, kappa)
heavy: not shown
light: B6 light with N42Q
B20: anti-human CD71 TF02.13-2013 activatable antibody (antibody, human IgG1, kappa)
heavy: not shown
light: B6 light with D41A, H43I

One experiment deals with T1, human CD71 (transferrin receptor protein 1, TfR1) on human cell lines (human, UniProt P02786 1-760).
T1 construct: whole, on cells; also called huCD71
T1 sequence (P02786 whole entry): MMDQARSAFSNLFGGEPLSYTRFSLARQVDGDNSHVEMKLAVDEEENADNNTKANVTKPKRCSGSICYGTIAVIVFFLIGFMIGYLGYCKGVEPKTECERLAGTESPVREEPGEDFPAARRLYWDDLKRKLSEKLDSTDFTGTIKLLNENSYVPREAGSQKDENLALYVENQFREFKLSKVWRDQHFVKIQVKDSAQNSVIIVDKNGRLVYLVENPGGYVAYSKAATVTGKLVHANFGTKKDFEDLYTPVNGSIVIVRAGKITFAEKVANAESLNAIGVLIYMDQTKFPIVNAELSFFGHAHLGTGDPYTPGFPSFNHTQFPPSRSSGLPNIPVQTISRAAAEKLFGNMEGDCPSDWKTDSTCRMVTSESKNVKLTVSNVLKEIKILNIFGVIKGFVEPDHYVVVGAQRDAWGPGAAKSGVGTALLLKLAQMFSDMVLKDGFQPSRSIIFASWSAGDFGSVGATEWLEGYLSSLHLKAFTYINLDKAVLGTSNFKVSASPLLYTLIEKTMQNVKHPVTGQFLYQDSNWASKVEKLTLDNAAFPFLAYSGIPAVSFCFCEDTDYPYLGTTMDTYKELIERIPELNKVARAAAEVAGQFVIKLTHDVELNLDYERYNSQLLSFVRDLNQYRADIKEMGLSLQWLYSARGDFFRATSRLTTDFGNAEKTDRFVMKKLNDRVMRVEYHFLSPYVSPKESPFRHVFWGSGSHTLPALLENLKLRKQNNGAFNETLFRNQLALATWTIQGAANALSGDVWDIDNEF
Put plainly: FACS on BxPC3 cells.
B1: the binding result is “binds”.
In general, Kd refers to a measure of binding affinity in units of concentration. With B2, the Kd was roughly 3 nM.

A further experiment has as its target T1, human CD71 (transferrin receptor …). Put plainly: FACS on H292 cells. The protocol:
(§1) In this study, the binding of the antibodies of the present disclosure to the indicated cell lines were performed using a standard FACS labelling method.
For B3, the “Bmax (MFI)” value came to 1850 MFI and the Kd was 53.8 nM.
The corresponding values for B4 are 1600 MFI and 1.33 nM.

For the next experiment the target is unchanged. In words: FACS on HCC1806 cells. The method, then: as §1
Molecule B5 returned a Kd of roughly 200 nM.
B4 gave a dissociation constant Kd of 6.4 nM.
Consider B6, for which the equilibrium dissociation constant (Kd) was roughly 200 nM.

For a further experiment the target is unchanged. In words: FACS on MDA MB 231 cells. The protocol: as §1
Molecule B5 had a Kd of 46.9 nM.
The same measure, in the same setting: in the case of B7 it was 52.6 nM.
As for B8, the Kd amounted to 1.47 nM.
Still for that read-out and setting: for B9 the value was 1.24 nM.

The target of the next experiment is T2, recombinant human CD71 protein (human, UniProt P02786 89-760).
T2 construct: also called recombinant CD71
T2 sequence (P02786 89-760 limits assumed): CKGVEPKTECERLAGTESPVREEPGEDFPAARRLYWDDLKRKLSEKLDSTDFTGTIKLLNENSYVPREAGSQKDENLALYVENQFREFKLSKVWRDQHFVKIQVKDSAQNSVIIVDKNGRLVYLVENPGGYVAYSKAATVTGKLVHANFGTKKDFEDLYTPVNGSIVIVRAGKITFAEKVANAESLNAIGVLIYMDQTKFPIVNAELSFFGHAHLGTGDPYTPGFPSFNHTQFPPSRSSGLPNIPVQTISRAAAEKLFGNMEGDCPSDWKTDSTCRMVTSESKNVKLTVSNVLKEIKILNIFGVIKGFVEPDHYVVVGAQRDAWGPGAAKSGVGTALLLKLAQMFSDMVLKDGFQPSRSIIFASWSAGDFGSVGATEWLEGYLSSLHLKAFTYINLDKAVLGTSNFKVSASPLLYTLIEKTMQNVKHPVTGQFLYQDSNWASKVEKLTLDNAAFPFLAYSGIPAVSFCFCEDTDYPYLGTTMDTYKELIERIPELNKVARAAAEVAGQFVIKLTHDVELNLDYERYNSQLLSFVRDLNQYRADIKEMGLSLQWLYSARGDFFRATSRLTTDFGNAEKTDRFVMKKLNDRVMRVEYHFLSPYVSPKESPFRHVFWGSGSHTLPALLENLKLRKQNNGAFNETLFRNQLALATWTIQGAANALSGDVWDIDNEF
Put plainly: ELISA; Kd against CD71 21.12. The method, then: (§2) The amount of bound antibody was detected by incubation and detection by goat anti-human antibody conjugated to horseradish peroxidase and Ultra TMB (Thermo Fisher Scientific) detection.
With B10, the “ME (masking efficiency)” value is 500 fold.
Still for that read-out and setting: in the case of B11 it was 153 fold.

The target of a further experiment is T1, human CD71 (transferrin receptor …). Put plainly: FACS on H292 cells, uncleaved. The protocol:
In this study, the binding of the antibodies of the present disclosure to the indicated cell lines were performed using a standard FACS labelling method. […] These activatable antibodies include the light chain of the correspondingly named sequence listed above in Table C. The cells were labeled with the indicated test article at the indicated concentrations and subsequently detected with an Alexa Fluor 647 labeled goat anti-human IgG secondary antibody.
With B12, the dissociation constant (Kd) stood at 78.3 nM.
In turn, B13 registered an equilibrium dissociation constant (Kd) of 86.7 nM.
On the same count and under the same terms, in the case of B14 it was 67.4 nM.
On the same count and under the same terms, for B15 the value was 97.8 nM; for B16, 39.1 nM; for B17, 57.1 nM.
In turn, B18 yielded a Kd of 70.3 nM.
B19 gave a Kd of 90 nM.
Molecule B20 had an equilibrium dissociation constant (Kd) of 70.3 nM.

For the next experiment, the target named is T2, recombinant human CD71 protein. In words: ELISA, 1 µg/mL CD71, uncleaved. The method, then: as §2
On the technique in general: An ELISA detects its analyte on a solid surface through an enzyme-linked reagent.
Take B10: the Kd came out at 70 nM.
Consider B11, for which the dissociation constant (Kd) was found to be 21.4 nM.

The target is the same in another experiment. Put plainly: ELISA, 1 µg/mL recombinant human CD71, uncleaved. The method, then:
as §2
Regarding B12, the Kd worked out at 4.91 nM.
Same read-out and setting: for B13 the value was 2.21 nM; for B14, 0.778 nM; for B15, 2.61 nM.
The same measure, in the same setting: for B16 the value was 1.64 nM; for B17, 4.27 nM.
Still for that read-out and setting: for B19 the value was 15.1 nM; for B20, 3.25 nM.
